The text below walks through data of patent CN113583112A.

For assay [1], the target named is AAVXL32.1蛋白衣壳. The experiment in a line: BLI (Fortebio), mAb002 on protein G biosensor, antigen at 1.13 nM.
For assay [2], the target named is AAVXL32.1蛋白衣壳. As to the kind of experiment: BLI (Fortebio), mAb002 on protein G biosensor, antigen at 2.25 nM.
The target in assay [3] is AAVXL32.1蛋白衣壳. The experiment in a line: BLI (Fortebio), mAb002 on protein G biosensor, antigen at 0.0703 nM.
Assay [4] has as its target AAVXL32.1蛋白衣壳. The experiment in a line: BLI (Fortebio), mAb002 on protein G biosensor, antigen at 0.1406 nM.
Assay [5] deals with AAVXL32.1蛋白衣壳. The experiment in a line: BLI (Fortebio), mAb002 on protein G biosensor, antigen at 0.2813 nM.
The target in assay [6] is AAVXL32.1蛋白衣壳. The experiment in a line: BLI (Fortebio), mAb002 on protein G biosensor, antigen at 0.5625 nM.
The target of assay [7] is AAVXL32.1蛋白衣壳. The experiment in a line: BLI (Fortebio), mAb002 2 ug/ml on protein G biosensor, antigen at 1.13 nM in PBS.
The target of assay [8] is AAVXL32.1蛋白衣壳. The experiment in a line: BLI (Fortebio), mAb002 2 ug/ml on protein G biosensor, antigen at 2.25 nM in PBS.
For assay [9], the target named is AAVXL32.1蛋白衣壳. As to the kind of experiment: BLI (Fortebio), mAb002 2 ug/ml on protein G biosensor, antigen at 0.0703 nM in PBS.
Assay [10] has as its target AAVXL32.1蛋白衣壳. As to the kind of experiment: BLI (Fortebio), mAb002 2 ug/ml on protein G biosensor, antigen at 0.1406 nM in PBS.
Assay [11] concerns the target AAVXL32.1蛋白衣壳. As to the kind of experiment: BLI (Fortebio), mAb002 2 ug/ml on protein G biosensor, antigen at 0.2813 nM in PBS.
For assay [12], the target named is AAVXL32.1蛋白衣壳. The experiment in a line: BLI (Fortebio), mAb002 2 ug/ml on protein G biosensor, antigen at 0.5625 nM in PBS.

B1: mAb002抗体 (antibody, V domains shown)
VH: QVQLQQPGAELVRPGTSVKLSCKASGYTFISYWMHWVKQRPGQGLEWIGVIDPSDSYTNYNQKFKGKATLTVDTSSSTAYMQLSSLTSEDSAVYYCARYYYGSSRYFDVWGTGTTVTVSS
VL: YIQMTQTTSSLSASLGDRVTISCRASQDISNYLNWYQQKPDGTVKVLIYYTSRLHSGVPSRFSGSGSGTDYSLTISNLEQEDIATYFCQQSYTLPWTFGGGTKLEIK
B1: the Kd with AAVXL32.1蛋白衣壳 [1], with AAVXL32.1蛋白衣壳 [2], with AAVXL32.1蛋白衣壳 [3], with AAVXL32.1蛋白衣壳 [4], with AAVXL32.1蛋白衣壳 [5] and with AAVXL32.1蛋白衣壳 [6] was < 1 pM in each case. In addition, the koff with AAVXL32.1蛋白衣壳 [1], with AAVXL32.1蛋白衣壳 [2], with AAVXL32.1蛋白衣壳 [3], with AAVXL32.1蛋白衣壳 [4], in the assay with AAVXL32.1蛋白衣壳 [5] and with AAVXL32.1蛋白衣壳 [6] was < 1e-07 s⁻¹ each time. Further, the kon in the assay with AAVXL32.1蛋白衣壳 [1], with AAVXL32.1蛋白衣壳 [2], with AAVXL32.1蛋白衣壳 [3], in the assay with AAVXL32.1蛋白衣壳 [4], in the assay with AAVXL32.1蛋白衣壳 [5] and in the assay with AAVXL32.1蛋白衣壳 [6] was 3.26e+06 M⁻¹ s⁻¹ each time. Moreover, the 响应 in the assay with AAVXL32.1蛋白衣壳 [7] is 4.83; with AAVXL32.1蛋白衣壳 [8], 5.91; with AAVXL32.1蛋白衣壳 [9], 0.338; with AAVXL32.1蛋白衣壳 [10], 0.701; with AAVXL32.1蛋白衣壳 [11], 1.4; with AAVXL32.1蛋白衣壳 [12] it was 2.68.
